Tests used:
[1] = target: T1, human PYY (Phoenix) (human, C-terminal amide (-NH2)); assay: BLI (Octet RED96), biotinylated MAb on SA sensors, peptide in solution
T1 construct: 36-residue whole peptide; also called hPYY
Description: (§1) Affinity of MAb to peptides NPY, mPYY, hPYY, mPP and hPP were measured using an OCTET RED96 system with Octet SA sensors (ForteBio). Briefly, black 96-well plates were prepared with columns containing 200 μL/well of all reagents required for determination of affinity. In general, Octet SA sensors were first placed in wells containing Octet running buffer for 60 seconds to establish a baseline. Sensors were then transferred to wells containing 50 μg/mL biotinylated 5E12-B7 for 480 seconds to load the SA coated tips. Sensors were then regenerated by 3×5 second incubations in Regeneration Buffer (10 mM Glycine, pH 2) followed each time by a 5 second incubation in Octet running buffer. Sensors were then placed in fresh running buffer for 60 seconds to establish a baseline. Association was then measured by incubation the sensors for 10 min in 8 wells containing a serial dilution of peptide (0, 0.33 to 243 nM for NPY and PYY peptides, 0, 9 to 6560 nM for PP peptides). The sensors were then transferred to wells containing Octet running buffer for 15 min to measure dissociation of the peptides. The regeneration step was repeated before measurement of association/dissociation with a different peptide. All peptide measurements were performed in duplicate. The kd, kₐ and KD were determined for each peptide using the accompanying Octet software (Bioforte).
(§2) Affinity parameters of MAb 5E12-B7 were measured against peptides NPY, mPYY, hPYY, mPP and hPP using an Octet Red system (ForteBio). Streptavadin sensors were loaded with biotinylated MAb 5E12-B7. Association and dissociation rates were measured by incubation of the sensors in wells containing serial dilutions of the peptides, followed by incubation in assay buffer.

[2] = target: T2, NPY (mouse NPY, Phoenix) (mouse, C-terminal amide (-NH2)); assay: as above
T2 construct: 36-residue whole peptide bought from Phoenix Peptides; also called mNPY; neuropeptide Y
Description: as §1, §2

T1 sequence (peptide, as listed by the source): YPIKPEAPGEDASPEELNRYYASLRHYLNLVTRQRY

Kd [1]: 2.17 nM
koff [1]: 0.000385 s⁻¹
kon [1]: 179000 M⁻¹ s⁻¹
Kd [2]: 4.7 nM
koff [2]: 0.000429 s⁻¹
kon [2]: 92600 M⁻¹ s⁻¹
B1: MAb 5E12-B7 (antibody, V domains shown)
VH: QVQLQHPGTEVVKPGASVKLSCKASGYTFTNYWMHWVKQRPGQGLEWIGNIDPSNGGTNYNEKFKSKATLTVDKSSSTAYMQLSSLTSEDSAVYYCASFAYWGQGTLVTVSA
VL: DIQMTQSPASLSASVGETVTITCRASGNIHNYLAWYQQKQGKSPQLLVYNAKTLADGVPSRFSGSGSGTQYSLKISSLRPEDFGSYYCQHFWSPPFTFGSGTKLEIK
notes: Biotinylated for the Biacore and Octet assays; also called PYY/NPY antibody (5E12); anti-NPY/PYY antibody 5E12
